Patent US7361741 (LIPTON DIVISION OF CONOPCO, dated 2008)

Columns and labels:
Human Pancreatic Lipase [1] = target: T1, Human Pancreatic Lipase (human, UniProt P16233 17-465, in ELISA and phage selections: biotin (EZ link NHS-biotin) on free NH2-groups, molar ratio biotin to lipase 15 to 1; not biotinylated in the enzyme activity assay); test: ELISA, yeast culture medium on biotinylated HPL captured by streptavidin
T1 construct: mature; Natural enzyme purified from a human source; In ELISA it was captured as biotinylated HPL on coated streptavidin; also called HPL; biotinylated HPL
T1 sequence (looked up): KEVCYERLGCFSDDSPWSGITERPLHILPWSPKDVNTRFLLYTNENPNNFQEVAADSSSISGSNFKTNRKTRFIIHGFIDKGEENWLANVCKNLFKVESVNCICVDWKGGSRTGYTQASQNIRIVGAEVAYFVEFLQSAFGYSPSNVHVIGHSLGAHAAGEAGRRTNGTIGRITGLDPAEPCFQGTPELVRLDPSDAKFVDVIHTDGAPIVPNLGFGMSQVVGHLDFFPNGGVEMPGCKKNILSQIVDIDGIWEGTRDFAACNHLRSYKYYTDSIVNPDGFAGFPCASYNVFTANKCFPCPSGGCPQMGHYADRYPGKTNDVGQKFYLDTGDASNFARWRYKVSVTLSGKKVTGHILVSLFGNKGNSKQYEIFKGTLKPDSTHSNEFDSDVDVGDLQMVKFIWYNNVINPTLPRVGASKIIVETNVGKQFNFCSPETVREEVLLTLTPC
Protocol: For ELISA in vitro biotinylated HPL (prepared as described in paragraph 2.2) was immobilised indirectly via streptavidin. Streptavidin was coated at 5 µg/ml in Phosphate Buffered Saline (PBS) during two hours at room temperature in MAXISORB plates (NUNC). The coat solution was removed and, after washing with 0.05 vol % Tween-20 in PBS (PBST), the wells were blocked during 30 minutes at room temperature with a 4 wt % skimmed milk solution made in PBS. Biotinylated HPL was captured by the coated streptavidin during 16 hours at 4° C. from a solution with a concentration of 2.5 µg/ml enzyme in PBST, followed by washing of the plate with PBTS to remove free biotinylated HPL.
Two clones from each construct were grown for 24 hours at 30° C. in YNB medium (0.67% Yeast Nitrogen without amino acids (Difio)) containing 2% glucose. For V_HH gene expression both pre-cultures were diluted 1/10 in 1 ml of YPD medium (1% yeast extract, 2% peptone, 2% glucose, 2% galactose) for induction of the GAL7 promoter and grown during 48 hours at 30° C. using 8 wells culture plates for cultivation. The V_HH production in the medium fraction of these clones was examined by analysis on a Coomassie blue stained polyacrylamide gel. Their functional characteristics were confirmed in ELISA on indirectly immobilised biotinylated HPL and in the lipase enzyme activity assay.

Human Pancreatic Lipase [2] = target: T1, Human Pancreatic Lipase; test: phage display selection in solution with biotinylated HPL, capture on streptavidin beads
Protocol: Free V_HH fragments were removed by precipitation of phage from the culture supernatant with PEG6000, thereby avoiding a disturbing competition between phage bound and free V_HH fragments. "In solution" capture of *E. coli* phage exposing HPL specific antibody fragments was performed with in vitro biotinylated lipase (EZ link NHS-biotin) covalently coupled to free NH_2-groups of the lipase according to the instructions of the supplier; the molar ratio between biotin and lipase was 15 to 1). For selection 15 nM and 40 nM Human Pancreatic Lipase was used in round one and 0.6 nM and 3 nM in round two. The carboxy terminal domain was prepared by proteolysis with chymotrypsin and purified with reversed phase HPLC. Lipase was biotinylated and used for selection of the immune library (combined short hinge and long hinge) at 15 and 70 nM during round one and at 1 and 3 and 15 nM during round two. During the binding phase of the selection "application conditions" (inclusion of 5.3 mM cholic acid and 36 mM deoxycholate) were used.

Human Pancreatic Lipase [3] = target: T1, Human Pancreatic Lipase; test: ELISA on biotinylated HPL, E. coli and yeast produced VHH
protein A = target: T2, protein A (UniProt P38507 37-477); test: affinity chromatography on protein A sepharose
T2 construct: also called protein A sepharose (Pharmacia)

Binder	binding result (Human Pancreatic Lipase [1])	also measured
HPL#15 (VHH, Llama VHH; E. coli form (pUR5095): with hinge and myc-tag; Yeast forms: PstI/BstEII fragment, untagged (pUR1403) or with myc/His6 tags (pUR5097); also called anti-HPL VHH fragment HPL#15) VHH: QVQLQESGGGLVQAGGSLRLSCAASGSISSINVMGWFRQAPGKQRELVASITSGGSTNYADSLKGRFTISRDNAKNAVYLQMNNLKPEDTAVYYCNAHITPAGSSNYVYGYWGHGTKVTVSS	binds	
HPL#12 (VHH, Llama VHH produced in E. coli from the phagemid, with hinge and C-terminal myc-tag; also called anti-HPL VHH fragment HPL#12) VHH: QVQLQESGGGLVQAGGSLRLSCAASGSIGSIHTMGWYRQTPGKERDVVATIQDGGSTNYADSVKGRFTISRDNTLNTVYLQMNDLKPEDTAVYYCNADVRPYRTSRYLEVWGQGTLVTVSS		binding result (Human Pancreatic Lipase [2]): binds
HPL#14 (VHH, Llama VHH; Yeast form (pUR5265): PstI/NotI fragment including the hinge region, followed by myc- and hexahistidine tags; also called anti-HPL VHH fragment HPL#14) VHH: QVQLQESGGGLVQAGGSLRLSCAASGSIGSIHTMGWYRQTPGTERDVVATIQDGGSTNYADSVKGRFTISRDNILNTVYLQMNSLKPEDTAVYHCNADVRPYRTSRYLELWGQGTLVTVSS	binds	
HPL#13 (VHH, Llama VHH; E. coli form (pUR5082): with hinge and myc-tag; Yeast forms: PstI/BstEII fragment, untagged (pUR5090) or with myc/His6 tags (pUR5098); also called anti-HPL VHH fragment HPL#13) VHH: QVQLQESGGGLVQAGGSLRLSCAASGTILSIIYMDWYRQTPGKQRELVGRITAGGSTNYADSAKGRFTISKDNAKNTVYLQMNSLKPEDTAVYYCNALITRWDKSVNDYWGQGTQVTVSS		binding result (Human Pancreatic Lipase [3]): binds
HPL#11 (VHH, Llama VHH; E. coli form (pUR5084): VHH with hinge and C-terminal myc-tag; Yeast forms: PstI/BstEII VHH fragment, untagged (pUR5091) or with myc-tag and hexahistidine tail (pUR5099); also called anti-HPL VHH fragment HPL#11) VHH: QVQLQDSGGGLVQAGGSLRLSCAASGSIFSSDLMGWYRQAPGKEREAVARITRGGTTSYADSVKGRFTISRDNAKNTMYLQMNSLKPEDTAVYYCNARRSNYDRSWGDYWGQGTQVTVSS		binding result (Human Pancreatic Lipase [2]): binds
HPL#18 (VHH, Llama VHH; E. coli form (pUR5086): with hinge and myc-tag; Yeast forms: PstI/BstEII fragment, untagged (pUR5092) or with myc/His6 tags (pUR5263); also called anti-HPL18; αHPL18) VHH: QVQLQDSGGGLVQAGGSLRLSCAASGTIGDIYTMAWHRQAPGKERELVASATESGSPNYADPVKGRFTISRDNGKLTVYLQMNSLKPEDTAVYYCNALIRRKFTSEYNEYWGQGTQVTVSS	binds	
HPL#19 (VHH, Llama VHH; E. coli form (pUR5087): with hinge and myc-tag; Yeast forms: PstI/BstEII fragment, untagged (pUR5093) or with myc/His6 tags (pUR5264); also called anti-HPL VHH fragment HPL#19) VHH: QVQLQDSGGGLVQTGGSLRLSCAASGPIGDVYLMGWYRQAPGKQREMVASITATGPPNYTDSVKGRFTISRDNDKNTEYLQMNNLKPEDTAVYYCNAQVRVRFSSDYTNYWGQGTQVTVSSEPKTPKPQP	binds	binding result (protein A): no binding
